To fix the notation:
B1: VH:VL chains; a variant is named by its letters at X, in order (parent)
chain 1: QVQLVQSGAEVKKPGASVKVSCKASGYTFTDYXMHWVRQAPGQGLEWMGXVNPNXXXTTYNQKFEGRVTMTTDTSTSTAYMELRSLRSDDTAVYYCARXNXLDXWGQGTTVTVSS
chain 2: DIQMTQSPSSLSASVGDRVTITCSVSSSVSSIYLHWYQQKPGKAPKLLIYSTSNLASGVPSRFSGSGSGTDFTLTISSLQPEDFATYYCQVYSGYPLTFGGGTKVEIK

Here are results for 119 variants from the emibetuzumab library of Makowski et al. (2022).

Variants of B1 are the subject of the data set. Briefly: yeast display scFab, FACS + sequencing. The procedure, abridged:
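Non-specific binding was called from deep sequencing of sorted yeast cells displaying a heavy-chain CDR mutant scFab library. Cells labelled with anti-Myc and biotinylated ovalbumin (260 μg/mL in PBSB, 3 h, room temperature) or soluble membrane proteins (130 μg/mL, 20 min on ice) were FACS-sorted, collecting the top 25% and bottom 10% of binders from two replicates. A sequence was positive when present in ≥3 of 4 pooled positive samples and absent from all negatives, and negative under the converse rule.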
As for ARARGSGA, the non-specific binding call is “binds”.
Take VTTRGAVA: the non-specific binding call is recorded as “no binding”.
For FAGRGSSD the value was “binds”.
For FRGGSAGD the value was “binds”; for DAARGAAA, “no binding”.
As for YAEESSGV, the non-specific binding call is “no binding”.
For the variant DTTGSDVY, the non-specific binding call is listed as “no binding”.
For YRARGAGF the value was “binds”.
To VRAKGSAD belongs “binds”; to VARADSGV, “no binding”; to YKGKGSAA, “binds”.
On to DTEGDAGD, for which the non-specific binding call is recorded as “no binding”.
To YKGEGDGV belongs “no binding”; to SKGGSAWD, “binds”; to VRARGALV, “binds”.
To YTGKSVAV belongs “binds”; to YTERGDAV, “no binding”.
For FRGGGAVS the value was “binds”.
As for YRRRGAWD, the non-specific binding call was “binds”.
To SEEGTAGD belongs “no binding”; to FRTGDSLV, “no binding”; to SKTKSSAS, “no binding”.
For the variant FKGGSSAA, the non-specific binding call is “binds”.
In the case of FRAGGVGV, the non-specific binding call was “binds”.
Consider YAGGTSSD, for which the non-specific binding call was “no binding”.
For SEARSDAV the value was “no binding”; for VKAAGSVD, “binds”; for YRGRTAAF, “binds”.
For FRGRGVGD the value was “binds”.
As to SETGGDWV, the non-specific binding call is given as “no binding”.
For VTERSALD the value was “binds”; for YRRRGSWV, “binds”; for DAAGAAGV, “no binding”.
For VTGTGDVY the value was “no binding”; for AGGRGDVD, “no binding”; for VRTGDSAY, “no binding”.
For YRRRGDWA the value was “binds”.
Consider YAGEGFGV, for which the non-specific binding call was “no binding”.
Take YRRRGSAD: the non-specific binding call is “binds”.
To VRGGGAAY belongs “no binding”.
To SGTKGYWD belongs “binds”; to DREEGDGS, “no binding”; to VAGGDDAV, “no binding”.
For the variant YRARSAVV, the non-specific binding call was “binds”.
As for YRGANVVY, the non-specific binding call is “binds”.
For SETKGDWA the value was “no binding”; for VKKGSSLF, “binds”.
To AAEGGYAV belongs “binds”; to FKGRGFVV, “binds”.
To VAGTGDAA belongs “no binding”; to DRGRDDVD, “no binding”; to YKGKGSLY, “binds”.
For FRARSAAV, the non-specific binding call was “binds”.
Turning to DATGGSVD, the non-specific binding call is recorded as “no binding”.
To DTTGSALD belongs “no binding”; to ARRGSDVA, “no binding”.
To SRKGAASD belongs “binds”.
For VTAGDDVY the value was “no binding”; for YRGKDSVD, “binds”; for FGRGSSWA, “no binding”.
As to VAGTGSSD, the non-specific binding call is “no binding”.
For VKARGSVD the value was “binds”; for VKARGSVA, “binds”; for DATGGDVD, “no binding”.
For YKGGSFGV, the non-specific binding call is reported as “binds”.
To DRAGDASD belongs “no binding”; to YKGRDAGD, “binds”.
For DAGGGYSV the value was “no binding”; for YRGAGAAA, “binds”; for YRARGSGV, “binds”.
VKGRGAGY: the non-specific binding call is on record as “binds”.
To YRGRGFSA belongs “binds”.
As to VEGADAVA chain 1 G106S, the non-specific binding call is on record as “no binding”.
Consider YKGRGSLV, for which the non-specific binding call is recorded as “binds”.
For YRRRGALS the value was “binds”; for DAEKDSGA, “no binding”.
To DRAGDALD belongs “no binding”; to YEGGADVD, “no binding”.
To FKGRGSGY belongs “binds”; to VRGTGYAS, “binds”.
With YRGRGFWF, the non-specific binding call was “binds”.
For FRAGSAWS, the non-specific binding call is recorded as “binds”.
Consider DKTGDSAD, for which the non-specific binding call is recorded as “no binding”.
To YRGRGVAA belongs “binds”; to YRGKASGD, “binds”.
Consider YKGRGALF, for which the non-specific binding call was “binds”.
In the case of VKEGGAVV, the non-specific binding call was “no binding”.
With VRTEDSLV, the non-specific binding call is reported as “no binding”.
To AREGDDVA belongs “no binding”; to YKAGGFGA, “binds”; to FKGEGSSA, “no binding”.
For YATEGVWV the value was “binds”.
In the case of SEARSDGS, the non-specific binding call is given as “no binding”.
With VERRGSWS, the non-specific binding call is “no binding”.
Consider YRREGAGD, for which the non-specific binding call is “binds”.
For ATGRADVY the value was “no binding”.
For ARRGGSGS the value was “binds”.
Turning to VTGTGSGD, the non-specific binding call is given as “no binding”.
With DRTGDSSS, the non-specific binding call was “no binding”.
To YTEGDDGA belongs “no binding”; to YRAAGAGS, “binds”; to VEAGDAGD, “no binding”.
For VRGRGALS the value was “binds”.
FKGGGAVY: the non-specific binding call is “binds”.
For YRGRGVGS the value was “binds”; for VETEGDVA, “no binding”; for FRRRGAAA, “binds”.
With YKGRGYAV, the non-specific binding call was “binds”.
To YKKRGAWS belongs “binds”; to STGRAALA, “no binding”.
Consider SKGKGAWY, for which the non-specific binding call is “binds”.
To DRGGDAVA belongs “no binding”; to YKTRSAVA, “binds”; to VKAASAVY, “no binding”.
To YTGRGSLD belongs “binds”; to YETGNVWF, “no binding”; to VEGGGDVA, “no binding”.
For FRRRGSAA the value was “binds”; for FRRRGSAD, “binds”.
